# Measurements as given in the nanobody polyreactivity screen of Harvey et al. (2022).
# Assay: yeast display, Sf9 membrane polyspecificity reagent, FACS + sequencing; frameworks hold sequencing errors
# Method in brief: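 Nanobodies came from a synthetic yeast display library in Saccharomyces cerevisiae BJ5465, induced with galactose for 36–48 hours and stained for 1 hour at 4 °C with 10% biotinylated, detergent-solubilized Sf9 membrane reagent. Cells were enriched on streptavidin microbeads and then FACS-sorted, with low and high (top ~1%) gates set on anti-HA fluorescence for expression and streptavidin fluorescence for reagent binding. Each polyreactivity label reflects the gate a clone came from. Genes were amplified by colony PCR, sequenced by MiSeq 2 × 250 and filtered by CDR length.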
row,Sequence,polyreactivity (PSR sort gate)
1,QVQLVESGGGLVQAGGSLRLSCAASGSIFEIYAMGWYRQAPGKERQLVASITWSGGSTYYADSVKGRFTISRDNAKNTVYLQMNSLKPEDTAVYYCATDKLYGRTVRMDYWGQGTQVTVSS,low polyreactivity
2,QVQLVESGGGLVQAGGSLRLSCAASGSIFENYAMGWYRQAPGKERELVAAISSSGDSTYYADSVKGRFTISRDNAKNTVYLQMNSLKPEDTAVYYCAAEISLSRSDRIESYDYWGQGTQVTVSS,low polyreactivity
3,QVQLVESGGGLVQAGGSLRLSCAASGSIFEPNAMGWYRQAPGKEREFVAAISGSGGSTYYADSVKGRFTISRDNAKNTVYLQMNSLKPEDTAVYYCATRGKRSYFRTFYYWGQGTQVTVSS,high polyreactivity
4,QVQLVESGGGLVQAGGSLRLSCAASGSIFEPNAMGWYRQAPGTERELVAAISWNDGDTYYADSVKGRFTISRDNAKNTVYFQMNSLKPEDPAVYYCAAAISLYSYDYWGQGTQVTVSS,low polyreactivity
5,QVQLVESGGGLVQAGGSLRLSCAASGSIFEPNDMGWYRQAPGKEREFVAAISGSGGSTYYADSVKGRFTISRDNAKNTVYLQINSLKPEDTAVYYCANRGKRSYFRTFYYWGHGTQVTVSS,high polyreactivity
6,QVQLVESGGGLVQAGGSLRLSCAASGSIFEPYAMGWYRTAPGKERELVAAISSGGSTNYADSVKGRFTISRDNAKNTVYLQMNSLKPEVTAVYYCAAAYYTVGWLYYDYWYPFAYYYWGQGTQVTVSS,low polyreactivity
7,QVQLVESGGGLVQAGGSLRLSCAASGSIFEQYTMGWYRQAPGKERELVAAISRRYGRTYYADSVKGRFTISRDNAKNTVYLQMNSLKPEETAVYYCNTVYYGNFYSTRYDYWGHGTQVTVSS,high polyreactivity
8,QVQLVESGGGLVQAGGSLRLSCAASGSIFERYAMGWYRQAPGKERELVAGISTDGSTYADSVKGRFTISRDNAKNTVYLQMNSLKPEDTAVYYCNKRRGFSAWYDYWGQGTQVTVSS,low polyreactivity
9,QVQLVESGGGLVQAGGSLRLSCAASGSIFERYAMVWYRQAPGKERELVAAISWSGSSTYYADSVKGRFTISRDNAKNTVYLQMNSLKPEDTAVYYCNKVWIDTGMEYWGQGTQVTVSS,low polyreactivity
10,QVQLVESGGGLVQAGGSLRLSCAASGSIFEWYAMGWYRLAPGKERELVAVFSVRGGSTYYADSVKGRFTMSRENAKNTVYLQMNSLKPEDTAVYYCAADRVAPYYGHKRFYSGGQGTQVTVSS,high polyreactivity
11,QVQLVESGGGLVQAGGSLRLSCAASGSIFEWYAMGWYRQAPGKERELVAAINSGGSTYYADSVKGRFTISRDNAKNTVYLQMNSLKPEDTAVYYCNADTLLQDRLGDWYDYDYWGQGTQVTVSS,low polyreactivity
12,QVQLVESGGGLVQAGGSLRLSCAASGSIFEYNAMGWYRQAPGKERELVAAITRGGNTYYADSVKGRFTISRDNAKNTVYLQMNSLKPEDTAVYYCAAVQWYGYPYYSWGQGTQVTVSS,low polyreactivity
13,QVQLVESGGGLVQAGGSLRLSCAASGSIFEYYAMGWYRQAPGKERELVAAISTGGSTYYADSVKGRFTISRDNAKNTVYLQMNSLKPEDTAVYYCAAEDYHPGADTVGTGYDYWGQGTQVTVSS,low polyreactivity
14,QVQLVESGGGLVQAGGSLRLSCAASGSIFEYYTMGWYRQAPGKERELVAGISWSGGSTYYADSVKGRFTISRDNAKNTVYLQMNSLKPEDTAVYYCAARSRSGRQEYYYWGQGTQVTVSS,high polyreactivity
15,QVQLVESGGGLVQAGGSLRLSCAASGSIFFAYAMGRYRQAPGKERELVAAITSGVSTNYADSVKGRFTISRDNAKNTVYLQMNILKPEDTAVYFCNADFDYGFDAGVAVQVVINVYWGQGTEVTVSS,low polyreactivity
16,QVQLVESGGGLVQAGGSLRLSCAASGSIFFAYSMGWYRQAPGKERELVAAISWSDGSTYYADSVKGRFTISRDNAKNTVYLQMNSLKPEDTAVYYCDKVYRSIGPNVSRYGLSYYYWGQCTQVTVSS,low polyreactivity
17,QVQLVESGGGLVQAGGSLRLSCAASGSIFFDGNAMGWYRQAPGKERELVAAISVSGGSTYYADSVKGRFTISRDNAKNTVYLQMNSLKPEDTAVYYCAKYPSKSYVPGDYWGQGTQVTVSS,low polyreactivity
18,QVQLVESGGGLVQAGGSLRLSCAASGSIFFEYAMGWYRQAAGKERELVAAIDVGGGGTDYADSVKGRFTISRDNAKNTVYLQMNSLKPEDTAVYYCAAQDYYYFGIGASYDYWGQGTQVTVSS,low polyreactivity
19,QVQLVESGGGLVQAGGSLRLSCAASGSIFFFNAMGWYRQAPGKVREFVAAITSSSGRTYYADSVKGRFTISRDNAKNTVYLQMNSLKPEDTAVYYCAAQVPEDTETVDYWGQGTQVTVSS,low polyreactivity
20,QVQLVESGGGLVQAGGSLRLSCAASGSIFFGNAMGWYRQAPGKERELVAAISTTGGSTYYADSVKGRFTISRDNEKNTVYLQMNSLKPEDTAVYYCNADRATWWEQWWYDYWGHGTQVTVSS,low polyreactivity
21,QVQLVESGGGLVQAGGSLRLSCAASGSIFFINAMGWYRQAPGKERELVAAISSGGTTYYADSVKGRFTISRDNAKNTVYLQMNSLKPEDTAVYYCNAAGFPYAHTFFKGLVEYDSWGQGTQVTVSS,low polyreactivity
22,QVQLVESGGGLVQAGGSLRLSCAASGSIFFLYAMGWYRQAPGKEWELVAAISGGGGSTYYADSVKGRFTISRDNAKNTVYFQMNCLKPEDTAVYNSAARTRVTKREYDYWGQGTQVTVSS,high polyreactivity

row,Sequence,polyreactivity (PSR sort gate)
1,QVQLVESGGGLVQAGGSLRLSCAASGSIFFLYARGWYRQAPGKERELVAAISRSGGNTYYADSVKGRFTISRDNAKNSVYLQMNSLKPEDTAVYYCAADGVHRGGRGGYWGQGTQVTVSS,high polyreactivity
2,QVQLVESGGGLVQAGGSLRLSCAASGSIFFPNAMGWYRQAPGKERELVAAINWSGDSTYYADSVKGRFTISRDNAKNTVYLQMNSLKPEDTAVYYCNATYPWFDYDYWGQGTQVTVSS,low polyreactivity
3,QVQLVESGGGLVQAGGSLRLSCAASGSIFFPYAMGWSRQAPGKERELVAAITYGGGSTYYADSVKGRFTISRDNAKNTVYLQMNSLIPEDTAVYYCAAAVSYWRHGYQLSYDYWGQGTQVTVSS,high polyreactivity
4,QVQLVESGGGLVQAGGSLRLSCAASGSIFFPYAMGWYRQAPGKERELVAAISWRGGITYYADSVKGRFTISRDNAKNTVYLQMNSLKPEDTAVYYCAADGPYTGDGALDYWGQGTQVTVSS,high polyreactivity
5,QVQLVESGGGLVQAGGSLRLSCAASGSIFFPYAMGWYRQAPGKERELVAAISYSGTSTYYADSVKGRFTISRDNAKNTVYLQMNSLKPEDTAVYYCAAYSRYYASYDYWGQGTQVTVSS,high polyreactivity
6,QVQLVESGGGLVQAGGSLRLSCAASGSIFFQNAMGWYRQAPGKESEFVAAITWRGASTYYADSVKGRFTISRDNATNTVYLQMNSLKPEDTAVYYCAARQHYYYGWYYYWGQGTQVTVSS,high polyreactivity
7,QVQLVESGGGLVQAGGSLRLSCAASGSIFFRNAMGWYRQAPGKERELVAAITFSGGRTYYADSVKGRFTISRDTANNTVYLQMNSMKPEDTAVYYCAGRRSYTYARYDYWGQGTQVTVSS,high polyreactivity
8,QVQLVESGGGLVQAGGSLRLSCAASGSIFFRYAMGWYRQAPGKERELVAAISSSGGSTYYADSVKGRFTISRDNAKNTVYLQMNSLKPEDTAVYYCAARYYRKYYYSPFDYWGQGTQVTVSS,high polyreactivity
9,QVQLVESGGGLVQAGGSLRLSCAASGSIFFRYATMGWYRHAPGKESELVAAISRSGGSTYYADSVKGRFTISRDNGKNTVYLQMNSLKPEDTAVYYCAKVSPSLRASGYDYWGQGTQLTVSS,high polyreactivity
10,QVQLVESGGGLVQAGGSLRLSCAASGSIFFSNAMGWYRQAPGKERELVAAITSTGGSTYYADSVKGRFTISRDNAKNTVDLQMNSLKPEDTAVYYCAAASRRGYYYWGQGTQVTVSS,high polyreactivity
11,QVQLVESGGGLVQAGGSLRLSCAASGSIFFSNTMGWYRQAPGKERELVASIRETAGSTNYADSLKGRFTISRDYAKITVYLQMHSLKPEDTAVYYCAARYSPTRYHYGYWGQGTQVTVSS,low polyreactivity
12,QVQLVESGGGLVQAGGSLRLSCAASGSIFFSNTMGWYRQAPGKERELVASITGDSSTNYADSVKGRFTISRDNAKNTVYLQMNSLKPEDTAVYYCNAGRVLRYVGHYSGDLEYWGQGTQVTVSS,low polyreactivity
13,QVQLVESGGGLVQAGGSLRLSCAASGSIFFSYAMGWYRKAPGKERELVAAIDYSGGGTYYADSVKGRFTISRDNAKNTVYLQMNSLKPEDTAVYYCKSDTEVWADTFISYRALNYWGQGTQVTVSS,low polyreactivity
14,QVQLVESGGGLVQAGGSLRLSCAASGSIFFTNAMGWYRQAPGKERELVASITSSGGSTYYADSVKGRFTISRDNAKNTVYLQMNSLKPEDTAVYYCARDRWPFWYSPSGVYRYYYWGQGTQVTVSS,low polyreactivity
15,QVQLVESGGGLVQAGGSLRLSCAASGSIFFTYAMGWYRQEPGKERELVAAINSSGGSTYYADSVKGRFTISRDNAKNTVYLQMNSLKPEDTAVYYCAAYRYWSTPRYYWGQGTQVTVSS,high polyreactivity
16,QVQLVESGGGLVQAGGSLRLSCAASGSIFFTYVMGWYRQAPGKERELVAAISSDDNTNYADSVKGRFTISRDNAKNTVYLQMNSLKPEDTAVYYCNADTTLYPYYDYGYYDYDYWGQGTQVTVSS,low polyreactivity
17,QVQLVESGGGLVQAGGSLRLSCAASGSIFFVYAMGWYRQAPGKERELVAAITWSGGRTYYADSVKGRFTISRDNAKNTVYLQMNSLKPEDTAVYYCAARKYSDYFTPRYYYWGQGTQVTVSS,high polyreactivity
18,QVQLVESGGGLVQAGGSLRLSCAASGSIFFWNTMGWYRQAPGKERELVAAISSGGSTYYADSVKGRFTISRDTAKNTVYLQMNSLRPEDTAVYYCAAVYSGLYSYYYWGQGTQVTVSS,low polyreactivity
19,QVQLVESGGGLVQAGGSLRLSCAASGSIFFWYAMGWYRQAPGKVRELVAAISYSGSRTYYSDSVKGRFTISRDNAKNTVYLQMNSLKPEDTAVDYFNVSLYSGAEYDYWGQGTQVTVSS,high polyreactivity
20,QVQLVESGGGLVQAGGSLRLSCAASGSIFFYAMGWYIQAPGKERQLVAAISWRGGSTYADSVKGRFTISRDNAKKTVYLQMKSLKPEDTAVYYCAKDWVRSGAVIDYDYWGQGTQVTVSS,high polyreactivity
21,QVQLVESGGGLVQAGGSLRLSCAASGSIFFYAMGWYRQAPGKERELVADITYTGGSKYADSVKGRFTISRDYAKNTVYLQMNSLKPEDTAVYYCAKLDGGLFDYWGQGTQVTVSS,low polyreactivity
